Assay results as given in PMC7889885.
One block for each binder: values may come before it.

Legend:
[1] = target: T1, mouse KCC2 (mKCC2a, SLC12A5), twin-Strep tagged, as prepared for cryo-EM (mouse), Q91V14; assay: cryo-EM structure; single-particle cryo-EM of the purified transporter in 20 mM HEPES pH 7.4, 150 mM NaCl, 0.1% digitonin, ~10 mg/ml; C2 symmetry imposed; details: remark: other sources report otherwise
T1 chain: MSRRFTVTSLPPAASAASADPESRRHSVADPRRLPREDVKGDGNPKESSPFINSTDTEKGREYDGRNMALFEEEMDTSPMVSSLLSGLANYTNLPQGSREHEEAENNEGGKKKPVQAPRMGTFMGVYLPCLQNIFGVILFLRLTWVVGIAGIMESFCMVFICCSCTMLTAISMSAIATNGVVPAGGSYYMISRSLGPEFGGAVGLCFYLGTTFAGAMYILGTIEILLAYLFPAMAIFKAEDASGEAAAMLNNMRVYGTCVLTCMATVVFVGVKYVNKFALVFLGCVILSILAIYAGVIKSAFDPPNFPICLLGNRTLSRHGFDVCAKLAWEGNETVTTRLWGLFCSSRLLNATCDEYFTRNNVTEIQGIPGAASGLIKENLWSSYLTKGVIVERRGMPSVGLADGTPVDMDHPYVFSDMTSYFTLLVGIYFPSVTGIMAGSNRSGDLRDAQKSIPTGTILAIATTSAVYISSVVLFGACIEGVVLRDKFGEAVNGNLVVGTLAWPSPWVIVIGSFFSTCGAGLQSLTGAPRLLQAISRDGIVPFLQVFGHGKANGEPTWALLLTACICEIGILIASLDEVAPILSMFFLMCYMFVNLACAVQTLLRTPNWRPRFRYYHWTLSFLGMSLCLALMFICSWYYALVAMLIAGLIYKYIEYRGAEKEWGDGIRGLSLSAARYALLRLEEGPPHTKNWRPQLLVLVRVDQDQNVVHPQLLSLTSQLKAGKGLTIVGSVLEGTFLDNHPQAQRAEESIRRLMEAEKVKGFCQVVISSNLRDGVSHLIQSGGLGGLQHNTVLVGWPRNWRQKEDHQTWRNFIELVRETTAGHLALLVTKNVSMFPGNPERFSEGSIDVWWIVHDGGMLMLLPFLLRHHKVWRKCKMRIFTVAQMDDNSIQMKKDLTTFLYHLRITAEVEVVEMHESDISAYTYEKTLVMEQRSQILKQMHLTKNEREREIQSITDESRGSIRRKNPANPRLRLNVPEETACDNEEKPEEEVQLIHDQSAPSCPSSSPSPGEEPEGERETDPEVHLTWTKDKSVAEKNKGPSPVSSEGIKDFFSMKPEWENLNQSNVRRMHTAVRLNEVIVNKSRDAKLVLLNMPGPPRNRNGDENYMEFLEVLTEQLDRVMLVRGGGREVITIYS

[2] = target: T2, human NKCC1 (hNKCC1a, SLC12A2), twin-Strep tagged, as prepared for cryo-EM (human), P55011; assay: as above; details: remark: other sources report otherwise
T2 chain: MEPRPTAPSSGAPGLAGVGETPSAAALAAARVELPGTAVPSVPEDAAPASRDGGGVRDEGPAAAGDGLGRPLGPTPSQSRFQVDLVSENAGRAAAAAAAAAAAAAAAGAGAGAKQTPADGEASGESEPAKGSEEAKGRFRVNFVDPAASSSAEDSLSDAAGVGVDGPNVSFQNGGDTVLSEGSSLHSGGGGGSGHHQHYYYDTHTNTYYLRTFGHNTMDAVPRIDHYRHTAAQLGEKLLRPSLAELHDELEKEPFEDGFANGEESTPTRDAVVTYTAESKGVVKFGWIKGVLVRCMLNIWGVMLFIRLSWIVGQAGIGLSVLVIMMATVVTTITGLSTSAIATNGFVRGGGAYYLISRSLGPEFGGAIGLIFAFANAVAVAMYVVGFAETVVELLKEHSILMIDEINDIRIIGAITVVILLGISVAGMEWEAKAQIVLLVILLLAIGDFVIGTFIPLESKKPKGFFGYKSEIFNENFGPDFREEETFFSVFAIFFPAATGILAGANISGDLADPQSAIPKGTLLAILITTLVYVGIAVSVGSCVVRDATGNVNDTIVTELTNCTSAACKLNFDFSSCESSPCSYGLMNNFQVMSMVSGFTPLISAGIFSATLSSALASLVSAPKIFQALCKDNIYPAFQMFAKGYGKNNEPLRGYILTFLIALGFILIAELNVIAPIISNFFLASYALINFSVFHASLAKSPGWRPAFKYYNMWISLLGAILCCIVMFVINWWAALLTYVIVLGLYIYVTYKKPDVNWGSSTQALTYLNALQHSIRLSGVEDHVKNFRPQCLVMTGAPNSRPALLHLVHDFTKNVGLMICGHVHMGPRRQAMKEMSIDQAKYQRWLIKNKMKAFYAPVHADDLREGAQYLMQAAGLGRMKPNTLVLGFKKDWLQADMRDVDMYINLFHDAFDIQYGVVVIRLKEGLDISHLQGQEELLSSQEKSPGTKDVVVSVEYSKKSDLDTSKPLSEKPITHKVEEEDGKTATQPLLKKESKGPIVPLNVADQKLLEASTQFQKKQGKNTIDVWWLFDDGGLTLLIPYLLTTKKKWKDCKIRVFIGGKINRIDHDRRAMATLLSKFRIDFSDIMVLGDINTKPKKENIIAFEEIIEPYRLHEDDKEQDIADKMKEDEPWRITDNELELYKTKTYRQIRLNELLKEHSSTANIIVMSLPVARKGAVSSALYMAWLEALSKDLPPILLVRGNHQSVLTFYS

stoichiometry N [1]: 2
B1: mouse KCC2 (mKCC2a, SLC12A5), twin-Strep tagged, as prepared for cryo-EM, Q91V14 1-1138 (natural protein)
chain: T1 chain
modifications: here or on the partner: phosphorylation at T929 and T1029 (confirmed by mass spectrometry); phosphorylation at T929 and T1029 (confirmed by mass spectrometry)

stoichiometry N [2]: 2
B2: human NKCC1 (hNKCC1a, SLC12A2), twin-Strep tagged, as prepared for cryo-EM, P55011 1-1212 (natural protein)
chain: T2 chain
